Experimental data as given in the supplement of paper PMC10065799, “High-throughput profiling of sequence recognition by tyrosine kinases and SH2 domains using bacterial peptide display” (eLife, 2023).

Each sequence was assayed against MERTK (UniProt Q12866) (assay: phosphorylation enrichment, bacterial display (enrichment ratio); higher = better substrate or ligand; peptides without Tyr show the background).
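For SH2 binding enrichment of the phosphorylated peptide, bacterial display in this document: peptide library displayed on the E. coli surface as eCPX fusions, selected cells deep-sequenced, score is each peptide's frequency after selection divided by its frequency in the input.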
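For phosphorylation enrichment, bacterial display in this document: 11-residue human phosphosite peptides and single-mutation variants displayed on the E. coli surface, counted by deep sequencing, each peptide's frequency after selection divided by its frequency in the unselected input library; frequency after pTyr selection over input frequency; kinase dosed for 20-30% of maximal phosphorylation in three min.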

Sequence of MERTK (Q12866 whole entry, looked up, the tested form may be a part): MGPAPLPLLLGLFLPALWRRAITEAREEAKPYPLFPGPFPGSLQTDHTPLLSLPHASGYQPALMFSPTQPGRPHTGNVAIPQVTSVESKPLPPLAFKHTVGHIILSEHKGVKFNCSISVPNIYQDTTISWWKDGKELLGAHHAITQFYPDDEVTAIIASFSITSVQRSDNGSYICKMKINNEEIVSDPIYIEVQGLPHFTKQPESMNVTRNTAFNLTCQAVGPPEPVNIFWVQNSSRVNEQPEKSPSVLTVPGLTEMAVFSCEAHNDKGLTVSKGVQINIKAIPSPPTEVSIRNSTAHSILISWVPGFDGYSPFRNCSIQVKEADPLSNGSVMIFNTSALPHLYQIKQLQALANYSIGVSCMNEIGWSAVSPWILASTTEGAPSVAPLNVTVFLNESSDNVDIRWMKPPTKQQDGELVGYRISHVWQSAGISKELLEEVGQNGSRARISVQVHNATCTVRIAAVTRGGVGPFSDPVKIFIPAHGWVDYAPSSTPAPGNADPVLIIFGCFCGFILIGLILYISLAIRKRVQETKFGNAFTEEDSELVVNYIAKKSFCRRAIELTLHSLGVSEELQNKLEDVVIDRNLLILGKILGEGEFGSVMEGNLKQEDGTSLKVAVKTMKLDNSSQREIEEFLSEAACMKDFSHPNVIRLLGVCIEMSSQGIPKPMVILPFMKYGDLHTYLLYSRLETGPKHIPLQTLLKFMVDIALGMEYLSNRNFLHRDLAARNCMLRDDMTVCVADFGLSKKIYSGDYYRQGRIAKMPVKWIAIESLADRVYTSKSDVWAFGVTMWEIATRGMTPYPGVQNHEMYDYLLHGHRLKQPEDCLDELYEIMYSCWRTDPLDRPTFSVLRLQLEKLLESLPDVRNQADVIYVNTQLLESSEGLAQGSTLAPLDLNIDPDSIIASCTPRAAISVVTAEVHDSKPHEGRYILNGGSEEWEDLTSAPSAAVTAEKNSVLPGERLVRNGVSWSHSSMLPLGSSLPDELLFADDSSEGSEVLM

Row | Sequence | phosphorylation enrichment
1 | ALKKPYGVLFK [RPF2_Y59_YF] | 0.528
2 | FMFKVYSDPQP [FGFR1_Y280_C277Y_YF] | 0.438
3 | ETKAFYPEEIS [HSPA1A_Y115] | 0.408
4 | SLNEGYAKDFD [FBP1_Y216_R218K] | 0.437
5 | AACQHYGVHTC [NR4A2_Y275_R278H] | 0.406
6 | SVMAEYGLFAA [VSX2_Y219_G223A_YF] | 0.396
7 | CLAKMYYSAVE [CP_Y539_D544E] | 2.82
8 | LLREWYVQDPF [SIX3_Y225_L226V_YF] | 0.443
9 | TRLAQYDSNSK [BMX_Y216_S212R] | 0.682
10 | AAVPAYDKIRV [STXBP2_Y401] | 0.48
11 | SVTCTYSRALN [TP53_Y126_P128R] | 0.401
12 | VASSLYDILAR [GLB1_Y294] | 8.38
13 | VRTGIYHGGKP [PIK3CA_Y361_E365K] | 0.294
14 | DEEEEYEFMNR [ERBB3_Y1197_D1194E_YF] | 0.462
15 | VIEFSYTSADG [DHCR7_Y382_C380Y_YF] | 0.415
16 | RSACTYLAPHL [PLK3_Y615_S618P] | 1.02
17 | EEGNPSYSSAR [MCCC2_Y520_Y520S] | 0.501

Row | Sequence | phosphorylation enrichment
18 | HAVVDYMRRQK [ATM_Y1915_L1910H] | 0.654
19 | YVSSFYHAFSG [ACTN4_Y265] | 8.9
20 | KPFRVYCDMNT [FGB_Y269_YF] | 0.409
21 | RGRSTCFWPRP [GAGE12J_Y9_Y9C_YF] | 0.796
22 | IAINKYGVSLI [MYO7A_Y2136] | 0.426
23 | DLAAQYTTVGR [SGSH_Y240] | 0.494
24 | SVVVPYEPPEI [TP53_Y220_V225I] | 0.37
25 | MTFQNYRQALF [FAM20C_Y279_G280R] | 0.494
26 | RRERPYGGGGG [FUS_Y526] | 0.375
27 | CDFKKYGKGLR [ZNF445_Y433_Y428C_YF] | 0.396
28 | IFQASYFRRGD [LTK_Y676_R673Q_YF] | 0.628
29 | MDYRSYPHEYG [RBM10_Y44_R46H] | 0.486
30 | MKGEYYRYLAE [YWHAG_Y131_D129E] | 0.471
31 | CFTRKYTLPPG [HSPB1_Y142] | 0.42
32 | YCRHNYGVGES [HLA-DRB1_Y112_V115G] | 0.582
33 | HVEAVYIDIAD [PITPNA_Y140] | 0.708

What follows are sequences tested against Grb2 SH2 (UniProt P62993) (assay: SH2 binding enrichment of the phosphorylated peptide, bacterial display (enrichment ratio); higher = better substrate or ligand; peptides without Tyr show the background).
Sequence of Grb2 SH2 (P62993 whole entry, looked up): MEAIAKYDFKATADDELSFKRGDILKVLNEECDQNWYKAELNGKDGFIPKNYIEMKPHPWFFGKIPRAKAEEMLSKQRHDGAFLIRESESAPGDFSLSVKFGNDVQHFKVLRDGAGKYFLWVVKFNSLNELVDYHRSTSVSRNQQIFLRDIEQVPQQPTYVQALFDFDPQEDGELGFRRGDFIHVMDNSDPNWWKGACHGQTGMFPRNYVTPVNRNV

Row | Sequence | SH2 binding enrichment
34 | ALKKPYGVLFK [RPF2_Y59_YF] | 2.15
35 | FMFKVYSDPQP [FGFR1_Y280_C277Y_YF] | 0.693
36 | ETKAFYPEEIS [HSPA1A_Y115] | 0.796
37 | SLNEGYAKDFD [FBP1_Y216_R218K] | 0.788
38 | AACQHYGVHTC [NR4A2_Y275_R278H] | 0.903
39 | SVMAEYGLFAA [VSX2_Y219_G223A_YF] | 0.881
40 | CLAKMYYSAVE [CP_Y539_D544E] | 0.828
41 | LLREWYVQDPF [SIX3_Y225_L226V_YF] | 1.03
42 | TRLAQYDSNSK [BMX_Y216_S212R] | 0.962
43 | AAVPAYDKIRV [STXBP2_Y401] | 0.803
44 | SVTCTYSRALN [TP53_Y126_P128R] | 0.62
45 | VASSLYDILAR [GLB1_Y294] | 0.567
46 | VRTGIYHGGKP [PIK3CA_Y361_E365K] | 0.898
47 | DEEEEYEFMNR [ERBB3_Y1197_D1194E_YF] | 0.946
48 | VIEFSYTSADG [DHCR7_Y382_C380Y_YF] | 0.87
49 | RSACTYLAPHL [PLK3_Y615_S618P] | 0.876
50 | EEGNPSYSSAR [MCCC2_Y520_Y520S] | 0.825

Row | Sequence | SH2 binding enrichment
51 | HAVVDYMRRQK [ATM_Y1915_L1910H] | 0.6
52 | YVSSFYHAFSG [ACTN4_Y265] | 1.2
53 | KPFRVYCDMNT [FGB_Y269_YF] | 0.783
54 | RGRSTCFWPRP [GAGE12J_Y9_Y9C_YF] | 0.595
55 | IAINKYGVSLI [MYO7A_Y2136] | 0.946
56 | DLAAQYTTVGR [SGSH_Y240] | 0.824
57 | SVVVPYEPPEI [TP53_Y220_V225I] | 0.854
58 | MTFQNYRQALF [FAM20C_Y279_G280R] | 1.13
59 | RRERPYGGGGG [FUS_Y526] | 0.703
60 | CDFKKYGKGLR [ZNF445_Y433_Y428C_YF] | 1.06
61 | IFQASYFRRGD [LTK_Y676_R673Q_YF] | 0.835
62 | MDYRSYPHEYG [RBM10_Y44_R46H] | 0.647
63 | MKGEYYRYLAE [YWHAG_Y131_D129E] | 0.922
64 | CFTRKYTLPPG [HSPB1_Y142] | 0.683
65 | YCRHNYGVGES [HLA-DRB1_Y112_V115G] | 0.936
66 | HVEAVYIDIAD [PITPNA_Y140] | 0.931

These sequences were tested against c-Src SH2 in the same assay as above.

Row | Sequence | SH2 binding enrichment
67 | ALKKPYGVLFK [RPF2_Y59_YF] | 1.76
68 | FMFKVYSDPQP [FGFR1_Y280_C277Y_YF] | 0.49
69 | ETKAFYPEEIS [HSPA1A_Y115] | 0.45
70 | SLNEGYAKDFD [FBP1_Y216_R218K] | 0.598
71 | AACQHYGVHTC [NR4A2_Y275_R278H] | 0.584
72 | SVMAEYGLFAA [VSX2_Y219_G223A_YF] | 0.462
73 | CLAKMYYSAVE [CP_Y539_D544E] | 2.57
74 | LLREWYVQDPF [SIX3_Y225_L226V_YF] | 1.11
75 | TRLAQYDSNSK [BMX_Y216_S212R] | 0.637
76 | AAVPAYDKIRV [STXBP2_Y401] | 4.85
77 | SVTCTYSRALN [TP53_Y126_P128R] | 0.46
78 | VASSLYDILAR [GLB1_Y294] | 0.78
79 | VRTGIYHGGKP [PIK3CA_Y361_E365K] | 0.63
80 | DEEEEYEFMNR [ERBB3_Y1197_D1194E_YF] | 0.637
81 | VIEFSYTSADG [DHCR7_Y382_C380Y_YF] | 1.97
82 | RSACTYLAPHL [PLK3_Y615_S618P] | 0.562
83 | EEGNPSYSSAR [MCCC2_Y520_Y520S] | 0.517

Row | Sequence | SH2 binding enrichment
84 | HAVVDYMRRQK [ATM_Y1915_L1910H] | 0.381
85 | YVSSFYHAFSG [ACTN4_Y265] | 2.2
86 | KPFRVYCDMNT [FGB_Y269_YF] | 0.771
87 | RGRSTCFWPRP [GAGE12J_Y9_Y9C_YF] | 0.571
88 | IAINKYGVSLI [MYO7A_Y2136] | 0.657
89 | DLAAQYTTVGR [SGSH_Y240] | 3.41
90 | SVVVPYEPPEI [TP53_Y220_V225I] | 0.844
91 | MTFQNYRQALF [FAM20C_Y279_G280R] | 0.51
92 | RRERPYGGGGG [FUS_Y526] | 0.436
93 | CDFKKYGKGLR [ZNF445_Y433_Y428C_YF] | 0.618
94 | IFQASYFRRGD [LTK_Y676_R673Q_YF] | 0.48
95 | MDYRSYPHEYG [RBM10_Y44_R46H] | 0.494
96 | MKGEYYRYLAE [YWHAG_Y131_D129E] | 0.676
97 | CFTRKYTLPPG [HSPB1_Y142] | 0.477
98 | YCRHNYGVGES [HLA-DRB1_Y112_V115G] | 0.823
99 | HVEAVYIDIAD [PITPNA_Y140] | 0.541

These sequences were tested against SHP2-C SH2 in the same assay as above.

Row | Sequence | SH2 binding enrichment
100 | ALKKPYGVLFK [RPF2_Y59_YF] | 2.29
101 | FMFKVYSDPQP [FGFR1_Y280_C277Y_YF] | 0.566
102 | ETKAFYPEEIS [HSPA1A_Y115] | 0.522
103 | SLNEGYAKDFD [FBP1_Y216_R218K] | 0.84
104 | AACQHYGVHTC [NR4A2_Y275_R278H] | 0.946
105 | SVMAEYGLFAA [VSX2_Y219_G223A_YF] | 0.627
106 | CLAKMYYSAVE [CP_Y539_D544E] | 0.971
107 | LLREWYVQDPF [SIX3_Y225_L226V_YF] | 1
108 | TRLAQYDSNSK [BMX_Y216_S212R] | 0.829
109 | AAVPAYDKIRV [STXBP2_Y401] | 0.503
110 | SVTCTYSRALN [TP53_Y126_P128R] | 0.596
111 | VASSLYDILAR [GLB1_Y294] | 0.67
112 | VRTGIYHGGKP [PIK3CA_Y361_E365K] | 0.915
113 | DEEEEYEFMNR [ERBB3_Y1197_D1194E_YF] | 0.747
114 | VIEFSYTSADG [DHCR7_Y382_C380Y_YF] | 0.858
115 | RSACTYLAPHL [PLK3_Y615_S618P] | 0.648
116 | EEGNPSYSSAR [MCCC2_Y520_Y520S] | 0.647

Row | Sequence | SH2 binding enrichment
117 | HAVVDYMRRQK [ATM_Y1915_L1910H] | 0.364
118 | YVSSFYHAFSG [ACTN4_Y265] | 1.79
119 | KPFRVYCDMNT [FGB_Y269_YF] | 0.535
120 | RGRSTCFWPRP [GAGE12J_Y9_Y9C_YF] | 0.353
121 | IAINKYGVSLI [MYO7A_Y2136] | 0.703
122 | DLAAQYTTVGR [SGSH_Y240] | 1.24
123 | SVVVPYEPPEI [TP53_Y220_V225I] | 0.867
124 | MTFQNYRQALF [FAM20C_Y279_G280R] | 0.792
125 | RRERPYGGGGG [FUS_Y526] | 0.478
126 | CDFKKYGKGLR [ZNF445_Y433_Y428C_YF] | 0.934
127 | IFQASYFRRGD [LTK_Y676_R673Q_YF] | 0.607
128 | MDYRSYPHEYG [RBM10_Y44_R46H] | 0.724
129 | MKGEYYRYLAE [YWHAG_Y131_D129E] | 1.12
130 | CFTRKYTLPPG [HSPB1_Y142] | 0.601
131 | YCRHNYGVGES [HLA-DRB1_Y112_V115G] | 0.838
132 | HVEAVYIDIAD [PITPNA_Y140] | 0.647
